The data set in a line: self-splicing fitness, log relative to wild type (ln ratio); higher = more splicing; Tetrahymena group I intron in knt gene, E. coli kanamycin selection, DiMSum; sequences stand for … in CUCUCU…GGAGGGAAAAGUUAUCAGGCAUGCACCUGGUAGCUAGUCUUUAAACCAAUAGAUUGCAUCGGUUUAAAAGGCAAGACCGUCAAAUUGCGGGAAAGGGGUCAACAGCCGUUCAGUACCAAGUCUCAGGGGAAACUUUGAGAUGGCCUUGCAAAGGGUAUGGUAAUAAGCUGACGGACAUGGUCCUAACCACGCAGCCAAGUCCUAAGUCAACAGAUCUUCUGUUGAUAUGGAUGCAGUUCACAGACUAAAUGUCGGUCGGGGAAGAUGUAUUCUUCUCAUAAGAUAUAGUCGGACCUCUCCUUAAUGGGAGCUAGCGGAUGAAGUGAUGCAACACUGGAGCCGCUGGGAACUAAUUUGUAUGCGAAAGUAUAUUGAUUAGUUUUGGAGUACUCGUGGUCG
The procedure, abridged: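 A randomised library covering all eight P1ex-region intron nucleotides was built with the intron in the knt kanamycin-resistance gene on pET-22b(+) and held in E. coli BL21(DE3). Cells were grown overnight at 37°C or 30°C on LB agar, with or without 25 μg/mL kanamycin, plus 100 μg/mL carbenicillin, 50 μM IPTG and 0.2% rhamnose, and pooled colonies were amplicon-sequenced on an Illumina HiSeq 2500. DiMSum fitness is the error-weighted combination of wild-type-normalised replicate fold changes, kanamycin versus none.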

± gives the uncertainty stated by the source.

In the case of UGGGAGCAAUAUUACGUAGG, the “self-splicing fitness (ln)” value (30 °C) is -3.24 ± 0.31 and the “self-splicing fitness (ln)” value (37 °C) is -1.93 ± 0.32.
Take UGGGAGCAAUAUUACGAAGG: the “self-splicing fitness (ln)” value (37 °C) was -1.1 ± 0.41.
On to AGCAAGCAAUAUUACGGCAA, for which the “self-splicing fitness (ln)” value was -0.272 ± 0.069 (30 °C) and -0.342 ± 0.086 (37 °C).
For ACGAAGCAAUAUUACGACUU, the “self-splicing fitness (ln)” value was -0.832 ± 0.058 (30 °C) and 0.00574 ± 0.081 (37 °C).
For UAUGAGCAAUAUUACGAAUU, in that order: -2.36 ± 0.33 and -1.73 ± 0.32.
For UUUUAGCAAUAUUACGUGAG, in that order: -0.331 ± 0.12 and -0.445 ± 0.22.
Take UUAAAGCAAUAUUACGAAUC: the “self-splicing fitness (ln)” value is, setting by setting: (30 °C) -3.58 ± 0.26; (37 °C) -1.79 ± 0.16.
Regarding CUAGAGCAAUAUUACGAUUG, the “self-splicing fitness (ln)” value (30 °C) was -0.464 ± 0.071 and the “self-splicing fitness (ln)” value (37 °C) was -0.493 ± 0.077.
The corresponding values for CGCCAGCAAUAUUACGUAGC are -2.36 ± 0.17 and -3.11 ± 0.33.
Consider UGUUAGCAAUAUUACGGACG, for which the “self-splicing fitness (ln)” value was -0.811 ± 0.15 (30 °C) and -0.257 ± 0.17 (37 °C).
In the case of CGCUAGCAAUAUUACGCGCU, the “self-splicing fitness (ln)” value is -3.85 ± 0.25 (30 °C) and -2.75 ± 0.22 (37 °C).
The corresponding values for GGGAAGCAAUAUUACGGUCU are -1.58 ± 0.086 and 0.382 ± 0.11.
For AGGUAGCAAUAUUACGCACC, in that order: -2.33 ± 0.031 and -1.26 ± 0.042.
Turning to CUUGAGCAAUAUUACGCUCA, the “self-splicing fitness (ln)” value is, setting by setting: (30 °C) -1.12 ± 0.32; (37 °C) -2.33 ± 0.29.
Take UUAUAGCAAUAUUACGGCCU: the “self-splicing fitness (ln)” value runs as follows: (30 °C) -1.48 ± 0.18; (37 °C) -1.09 ± 0.23.
The corresponding values for GCUUAGCAAUAUUACGACCU are -0.423 ± 0.1 and 0.203 ± 0.14.
For AGCGAGCAAUAUUACGUACA, in that order: -2.08 ± 0.31 and -1.89 ± 0.2.
The corresponding values for GGCUAGCAAUAUUACGCUGA are -1.18 ± 0.12 and -0.413 ± 0.13.
Take GGGGAGCAAUAUUACGUUUA: the “self-splicing fitness (ln)” value is -2.13 ± 0.28 (30 °C) and -2.77 ± 0.48 (37 °C).
For ACCGAGCAAUAUUACGUUGU, in that order: -3.67 ± 0.17 and -1.5 ± 0.12.
The corresponding values for AUCGAGCAAUAUUACGAUUA are -2.47 ± 0.23 and 0.0165 ± 0.12.
The corresponding values for GUCCAGCAAUAUUACGUUAC are -1.55 ± 0.089 and -0.179 ± 0.1.
As to AAGUAGCAAUAUUACGACGC, the “self-splicing fitness (ln)” value by setting is: (30 °C) -0.792 ± 0.12; (37 °C) 0.204 ± 0.14.
On to UACGAGCAAUAUUACGGCUU, for which the “self-splicing fitness (ln)” value reads like this: (30 °C) -3.48 ± 0.21; (37 °C) -1.84 ± 0.16.
With GUGUAGCAAUAUUACGUGGU, the “self-splicing fitness (ln)” value was -3.96 ± 0.27 (30 °C) and -1.17 ± 0.22 (37 °C).
With UAUAAGCAAUAUUACGACCU, the “self-splicing fitness (ln)” value was 0.317 ± 0.2 (30 °C) and -0.146 ± 0.23 (37 °C).
For the sequence CUCGAGCAAUAUUACGGACC, the “self-splicing fitness (ln)” value (30 °C) is -3.81 ± 0.37 and the “self-splicing fitness (ln)” value (37 °C) was -2.52 ± 0.41.
For the sequence CGUAAGCAAUAUUACGUAUU, the “self-splicing fitness (ln)” value (37 °C) is -0.991 ± 0.15.
Take UCCGAGCAAUAUUACGGAGU: the “self-splicing fitness (ln)” value is, setting by setting: (30 °C) -3.73 ± 0.21; (37 °C) -2.74 ± 0.22.
The corresponding values for UUGCAGCAAUAUUACGUCGA are -0.56 ± 0.09 and 0.0432 ± 0.13.
For UCUUAGCAAUAUUACGGUGU, in that order: -2.83 ± 0.12 and -1.23 ± 0.12.
The corresponding values for CCUUAGCAAUAUUACGUAGU are -2.48 ± 0.095 and -0.664 ± 0.098.
For AGUCAGCAAUAUUACGGUAG, the “self-splicing fitness (ln)” value (30 °C) is -3.46 ± 0.15 and the “self-splicing fitness (ln)” value (37 °C) is -2.76 ± 0.21.
With UCUAAGCAAUAUUACGGACU, the “self-splicing fitness (ln)” value reads like this: (30 °C) -3.51 ± 0.28; (37 °C) -2.84 ± 0.27.
Consider CCUAAGCAAUAUUACGUCUA, for which the “self-splicing fitness (ln)” value was -3.9 ± 0.24 (30 °C) and -3.48 ± 0.36 (37 °C).
The corresponding values for AUCUAGCAAUAUUACGGUUU are -1.13 ± 0.13 and -0.53 ± 0.13.
For UAUAAGCAAUAUUACGCCGU, the “self-splicing fitness (ln)” value (30 °C) was -1.41 ± 0.49.
Take GUUCAGCAAUAUUACGGAAA: the “self-splicing fitness (ln)” value runs as follows: (30 °C) -0.778 ± 0.13; (37 °C) 0.58 ± 0.19.
As for CGCAAGCAAUAUUACGACUA, the “self-splicing fitness (ln)” value was -1.47 ± 0.22 (30 °C) and -0.703 ± 0.2 (37 °C).
